Measurements reported in article PMC5101508 (Scientific Reports, 2016).

Assays:
[1] = target: monoclonal antibody F240 (IgG) (human (isolated from an HIV infected individual)); assay: SPR
[2] = tested on: EGFP-CEM-NKr-CCR5-SNAP cells sensitized with AT-2–inactivated HIV-1 BaL; assay: RFADCC, virion bound assay; format: cell-based; details: curves normalized for plateau cytotoxicity values using C11 (Fig. 5D); two independent experiments in duplicate
Description: (§1) EGFP-CEM-NKr-CCR5-SNAP cells sensitized with AT-2–inactivated HIV-1 BaL were (C) stained for antibody binding and (D) ADCC using the modified rapid fluorometric antibody-mediated cytotoxicity assay (RFADCC)[35]. Cluster A CD4i antibodies A32, N5-i5, C11 and Synagis were used as controls. The plot represents a mean of two independent experiments normalized to the average A32 values with error bars showing the range between experiments.
(§2) In brief, EGFP-CEM-NKr-CCR5-SNAP target cells were first stained with the SNAP-Surface Alexa Fluor 647 dye, washed twice and spinoculated with HIV-1 BaL AT-2 inactivated virus at 2000 RPM for 2 h at 12 °C. Subsequently, AT-2 BaLsensitized double-stained targets were washed twice with cold R10 medium and then subjected to testing for antibody binding (detected with PE-labeled mouse anti-human IgG secondary antibody, BD Bioscence cat. 555787) and RFADCC assay, following the previously described protocol. Samples were collected on a BD Fortessa Special Order instrument (BD Biosciences) and analyzed using FlowJo software (Tree Star, Ashland, OR). The HIV-1BaL AT-2 inactivated virus was generously provided by Dr. Jeff Lifson, NCI, Frederick. The ADCC data represent the typical results obtained in two independent experiments done in duplicate and the bars indicate the range of the values of cytotoxicity.

[3] = target: HIV-1 BaL envelope glycoprotein (Env, gp120/gp41) on AT-2-inactivated virions (HIV-1 (clade B, strain BaL)); assay: fluorescence correlation spectroscopy (FCS); Alexa 647 labelled mAb (5 μg/ml) incubated with 10 μg/ml of free AT-2-inactivated HIV-1 BaL virions for 90 minutes at 37 °C; in solution
[4] = target: gp41 583-618 peptide, oxidized form (Cys598-Cys604 disulfide) (HIV-1 (clade B, strain BaL)); assay: ITC
mAb F240 [5] = assay: Isothermal Titration Calorimetry (ITC) of F240 with gp41 peptides; format: binding; details: 25 °C, 1X PBS pH 7.4, F240 111 μM in syringe, peptide 11 μM in cell, single-site model
Description: Sensorgrams were obtained at room temperature for mAb F240 immobilized on a Protein A chip with 0–200 nM concentrations of gp41 peptide passed over the chip. […] Standard deviations of ka, kd and KD for two experiments are shown. […] The binding isotherms were fitted to a one-site binding model using Origin for ITC version 7.0383 (MicroCal). The fitting yields the stoichiometry (N), the binding constant (KD), and the enthalpy (ΔH) of the binding reaction.
The ITC experiments were performed using an ITC200 system (Micro-Cal) as previously described by Bradshaw et al.[61], at 25 °C in a 1X PBS buffer pH 7.4. F240 was dialyzed against this buffer overnight before the experiment. The peptides were dissolved in the final dialysis buffer. […] Titrations were performed at 25 °C with 17 injections of 2.42 μl aliquots, with 210–240 second intervals between injections. Heats of dilutions were measured and subtracted from each data set. Data were corrected for the heat of dilution and fitted using a nonlinear least-squares routine using a single-site binding model with Origin for ITC version 7.0383 (MicroCal).

mAb F240 [6] = assay: Surface Plasmon Resonance (SPR) of gp41 peptide on captured F240 IgG; format: binding; details: reduced vs oxidized peptide
Description: Sensorgrams were obtained at room temperature for mAb F240 immobilized on a Protein A chip with 0–200 nM concentrations of gp41 peptide passed over the chip. […] Standard deviations of ka, kd and KD for two experiments are shown.
The binding affinity and kinetics of F240 for gp41_583–618 peptide and gp41_583–618 peptide pretreated to reduce C^598-C^604 disulfide bond was assessed by Surface Plasmon Resonance on a Biacore T-100 (GE Healthcare) at 25 °C. The reduced gp41_583–618 was generated by treating the oxidized form of the same peptide with 0.05 M of TCEP. Protein A was first immobilized onto the second of the two flow cells on a CM5 chip to ~3000 response units (RU) and the first flow cell blocked with a standard amine coupling protocol (GE Healthcare). F240 IgG to be evaluated was then captured onto the second flow cell by flowing a 5–10 nM solution of mAb at 10 μl/min flow rate for 30 seconds. […] Varying concentrations (0–200 nM) of the oxidized and reduced forms of the peptide were then passed over both flow cells at a flow rate of 30 μl/min for 200 seconds and allowed to dissociate by passing buffer over both cells at the same flow rate for 800 seconds. The cells were regenerated with a 30 second injection of 0.1 M glycine pH 3.0 with a flow rate of 100 μl/min and the antibody reloaded onto the second flow cell for each peptide concentration. […]

[7] = target: T1, gp41 583-618 peptide, reduced form (pretreated with TCEP) (HIV-1 (clade B, strain BaL)); assay: SPR; peptide pretreated with TCEP
T1 peptide: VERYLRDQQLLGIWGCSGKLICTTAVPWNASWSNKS

[8] = target: T1, gp41 583-618 peptide, reduced form …; assay: SPR; peptide pretreated with TCEP
[9] = target: T2, gp41 583-618 peptide, oxidized form (Cys598-Cys604 disulfide) (HIV-1 (clade B, strain BaL), disulfide bond between Cys598 and Cys604 (oxidized peptide)); assay: SPR
T2 peptide: T1 peptide

[10] = target: T2, gp41 583-618 peptide, oxidized form …; assay: SPR
[11] = tested on: EGFP-CEM-NKr-CCR5-SNAP cells sensitized with AT-2–inactivated HIV-1 BaL; assay: Antibody binding (staining) to virion-sensitized cells, virion bound assay; format: cell-based; details: Fig. 5C; PE-labeled anti-human IgG secondary antibody; mean of two independent experiments normalized to A32
Description: as §1, §2

[12] = tested on: EGFP-CEM-NKr-CCR5-SNAP cells infected with BaL infectious molecular clone; assay: Cell-surface staining of IMC BaL infected EGFP-CEM-NKr-CCR5-SNAP cells; format: cell-based, HIV-1 BaL
Description: For BaL-infected cells two gates were delineated: p24+/CD4− and p24+low/CD4+; and one for Mock p24−/CD4+. The plot represents a mean of two independent experiments normalized to the average A32 values with error bars showing the range between experiments.
EGFP-CEM-NKr-CCR5-SNAP cells were spinoculated for 2 hr at 2000 RPM at 12 °C in 96-well U-bottom plate (5 × 10^5 cells/well) with 240 ng of IMC BaL virus (control cells were incubated without virus), as measured by HIV-1 p24 antigen capture ELISA. Afterward, the viral inoculum was diluted 1:2 in R10 medium containing G418 1.5 mg/ml, and cells and virus were placed into one well of a 12-well flat-bottom plate. The cells were then cultured adding fresh medium every 2 days. […] After a wash, cells were then fixed and permeabilized using the Cytofix/Cytoperm Kit (BD-PharMingen, San Diego, Calif.) for 20 min at 4 °C. Subsequently, permeabilized cells were washed once with the buffer provided by the manufacturer, resuspended and stained for 30 min at RT with 5 μl (PE)-conjugated mouse anti-p24 mAb (KC57-RD1; Beckman Coulter, Inc.). After two additional washes, HIV-1- or mock were fixed in PFA 2% analyzed with an LSRII Fortessa flow cytometer (BDBiosciences) and data analysis was performed with FlowJo software (Tree Star,Inc., San Carlos, Calif.). The plot represents a mean of two independent experiments normalized to the average A32 values with error bars showing the range between experiments.

“gp41 583-618 peptide, reduced form (pretreated with TCEP)” was tested, and the fold lower affinity than the oxidized peptide [1] was 14 fold.

“Synagis: Synagis (MedImmune), control mAb [reference compound]” was tested, and the “AUC (Area Under Curve), ADCC” value [2] was 18.2 cytotoxicity/μg/ml.

monoclonal antibody F240 (IgG) showed a percent of binding [3] of 40%, a Ka [4] of 2.95e+07 M⁻¹ and a Kd [4] of 34 nM.

In the case of “VERYLRDQQL[10] LGIWGCSGKL[20] ICTTAVPWNA[30] SWSNKS (disulfide) [gp41_583–618]”, the “binding constant KB” value (mAb F240 [5]) is reported as 2.95e+07 M⁻¹ and the Kd (mAb F240 [5]; read-out: dissociation constant KD) is reported as 34 nM.

In the case of “VERYLRDQQL[10] LGIWGCSGKL[20] ICTTAVPWNA[30] SWSNKS [reduced gp41_583–618, gp41_583–618 pretreated with TCEP to reduce the C598-C604 disulfide bond]”, the “lower affinity as compared to its oxidized form” value (mAb F240 [6]) is reported as “approximately 14 fold”.

B1: monoclonal antibody F240 (IgG) (antibody, V domains shown)
VH: QVQLVQSGGGVVKPGASSRLSCAASGFTFTDYYMSWIRQAPGKGLEWVAYITKDGSEKKYADSLQHRFAVSRDNANNLVFLQLNTVEDDDTGVYYCARDDGYYDRSGYYGVFDLWGQGIRVTVSS
VL: EFLLTQSPDSLAVTLGETATITCRSSRNILHSLNNKNYLAWYQQRPGQAPKLLVIWASMRVSGVADRFSGSGSGTDFALTISSLQPEDAAVYYCQHYYTTHRTFGQGTRVEIR
modifications: Alexa Fluor 647 on primary amines (only in the FCS experiments and in the staining of IMC BaL-infected cells) | Alexa Fluor 647 on primary amines (only in the FCS experiments and in the staining of IMC BaL-infected cells)
Work on B1 yielded a koff [7] of 0.0028 s⁻¹, a Kd [8] of 60 nM and a koff [9] of 0.00083 s⁻¹. The Kd [10] was 4.4 nM.

B2: N5-i5: Cluster A CD4i antibody used as control (antibody, V domains shown)
VH: EVQLVESGGGLVQPGGSLRLSCAASGFTFSTYAMSWVRQAPGKGLEWVSSINNSGRNTFSADSVKGRFTISRDNSKNTLFLVMNSLRAEDTAVYYCAKDLRLGGGSDYWGQGTLVTVSS
VL: QSALTQPASVSGSPGQSITISCTGTSSDVGSYNFVSWYQQHPGKAPKLMIYEVSERPSGISNRFSGSKSGNTASLTISGLQAEDEADYYCSSYAGSTTFRVFGGGTKLTVR
With B2 the “recognition (binding) of virion-sensitized cells, in words” value [11] was “Lower than reported in ref. [35]”, the “binding to mock-infected cells” value ([12]; mock p24−/CD4+ population) was “did not recognize” and the “binding to productively infected cells” value ([12]; p24+/CD4− population, 5 days post-infection) was “did not recognize”. The “binding to CD4-preserving cells with virus” value ([12]; p24+low/CD4+ population, 5 days post-infection) was “very effectively stained” and the “AUC (Area Under Curve), ADCC” value [2] was 374.8 cytotoxicity/μg/ml.
